In article PMC3671775:

Biological target: extracellular fragment of human macrophage galactose receptor (MGL) isoform 3 (human)
Assay: cross-linking

## extracellular fragment of human macrophage galactose receptor (MGL) isoform 3 (domain or fragment)
  stoichiometry N: 3
